Assay results published in patent US20200369769A1 (Bayer, published 2020).

T1: human ILDR2 (Immunoglobulin Like Domain Containing Receptor 2) (human, UniProt Q71H61 21-639)
T1 sequence (looked up): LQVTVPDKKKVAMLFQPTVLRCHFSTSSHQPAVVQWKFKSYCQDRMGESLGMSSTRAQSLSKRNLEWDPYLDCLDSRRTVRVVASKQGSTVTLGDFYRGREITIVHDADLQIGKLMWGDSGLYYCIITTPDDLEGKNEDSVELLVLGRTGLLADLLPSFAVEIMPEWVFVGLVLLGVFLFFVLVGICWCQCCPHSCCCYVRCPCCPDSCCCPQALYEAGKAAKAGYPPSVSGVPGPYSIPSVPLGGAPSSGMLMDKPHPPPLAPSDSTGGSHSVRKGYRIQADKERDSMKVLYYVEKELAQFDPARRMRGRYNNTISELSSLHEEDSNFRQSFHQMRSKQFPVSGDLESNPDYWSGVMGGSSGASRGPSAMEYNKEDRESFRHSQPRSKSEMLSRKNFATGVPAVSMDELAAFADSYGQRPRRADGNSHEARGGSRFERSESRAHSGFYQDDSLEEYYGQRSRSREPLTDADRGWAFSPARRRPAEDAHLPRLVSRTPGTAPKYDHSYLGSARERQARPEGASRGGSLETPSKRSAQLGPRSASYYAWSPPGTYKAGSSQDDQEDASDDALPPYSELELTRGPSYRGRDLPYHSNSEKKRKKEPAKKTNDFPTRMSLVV

B1: 56.02.E10 (antibody, V domains shown)
VH: QVQLVESGGGLVKPGGSLRLSCAASGFTFSNYGMHWVRQAPGKGPEWLAFIRYDGSKKYYADSVRGRFTISRDNSKNMLYLQMNSLRTEDTAVYYCAKEGIAAPGSGYYYGMDVWGQGTTVTVSS
VL: QSALTQPASVSGSPGQSITISCSGTTTDVGRYTLVSWYQHHPGKAPKLIIFEVNKRPSGVSSRFSGSKSGNTASLTISGLQTEDEADYFCCSYTGTTVIFGGGTQLTVL
B2: 56-02.E08 (antibody, V domains shown)
VH: EVQLVQSGAEVKKPGESLKISCKASGYSFTTYWIGWVRQVPGKGLEWMGIIYPGDYDTRYSPSFQGQVTISADKSINTAYLQWSSLEASDSAMYYCAIGEPFDYWGQGTLVTVSS
VL: not shown
notes: Full length IgG; The KD assay says 'hIgG1s'
B3: 59-08.B02 (antibody, V domains shown)
VH: QVQLVQSGAEVKKPGSSVKVSCKASGGTFSSYAISWVRQAPGQGLEWMGGIIPILGIANYAQKFQGRVTITADKSTSTAYMELSSLRSEDTAVYYCARGRLPYGDFWDSWGQGTLVTVSS
VL: not shown
notes: also called BAY1905254; aILDR2
B4: 74.15.G09 (antibody, V domains shown)
VH: EVQLVESGGGVVQPGRSLRLSCAASGFTFSSYGMHWVRQAPGKGLEWVAVISYDGSNKYYADSVKGRFTISRDNSKNTLYLQMNSLRAEDTAVYYCAKESPSVGLGSYYDFWSGLYGMDVWGQGTTVTVSS
VL: EIVLTQSPGTLSLSPGERVTLSCRTGQRVENLFIAWYQQKPGQAPRLLLYGASNRATGIPDRFSGSGSGTDFTLTISRLEPEDSAVYYCQQYDDSGITFGQGTRLEIK
notes: as for B2
B5: 61-02.C05 (antibody, V domains shown)
VH: EVQLVESGGGVVQPGGSLRLSCAASGFTFSSYAMSWVRQAPGKGLEWVSGISSSGGSTQYADSVKGRFTVSRDNSKNTLYLQMKSLRAEDTALYYCAKDFVGVLPDAFDIWGQGTMVTVSS
VL: DIQLTQSPSSLSASVGDRVTITCQASQDTNKYLNWYQQKPGKAPELLIYGASTLESGVPPRFSASGSGTDFTLTINSLQPEDIGRYYCQQYHIPPPSFGGGTKLEIK
notes: Full length IgG; The KD assay says 'hIgG1s'; also called 61-02.005

Tests used:
[1] = molecular target: T1, human ILDR2 (Immunoglobulin Like Domain …); test: cell-based or functional assay
[2] = molecular target: T1, human ILDR2 (Immunoglobulin Like Domain …); test: flow cytometry titration of hIgG1 on HEK cells stably transfected with human ILDR2; 1:1 equilibrium fit of MFI
Protocol: KD values were determined by flowcytometric quantitation of binding to HEK cells stably transfected with human ILDR2 and use of an algorithm designed to extrapolate affinities based on the binding curve. Briefly, hIgG1 s were added at a binding site concentration range of 3 pM-209 nM to a constant number of cells (100,000 cells/well) over 16 wells in a 96-well plate. One well contained cells without any added IgG to serve as a blank well. The cells were equilibrated for 4 hours at 4° C. An excess of Cy5-labeled goat anti-human polyclonal antibody (Jackson ImmunoResearch 109-606-097) at 90nM was added to each well after one FACS buffer wash of the cells. Cells were washed twice after a 30 minute incubation (at 4° C.) with the labeling pAb and then the Mean Fluorescence Intensity (MFI) was recorded over approximately 10,000 “events” using an Intellicyte flow cytometer. The […] of the IgGs binding to HEK 293 cells expressing ILDR2 were estimated by fitting the MFI vs. the IgG binding site concentration curve using a 1:1 equilibrium model as detailed in Drake and Klakamp (2007).

Binder	IL2 concentration (% over isotype control), mixed lymphocyte reaction [1]	Kd [2]
B1	223 % over isotype control	
B2	74 % over isotype control	2.7 nM
B3	91 % over isotype control	2 nM
B4	86 % over isotype control	12.4 nM
B5	82 % over isotype control	10.7 nM
